Measured values as given in patent US20220381787A1, “NOVEL LOX-1 ANTIBODY COMPOSITIONS, LOX1 NEUTRALIZATION ASSAY AND METHODS OF TREATMENT USING SAME” (The Wistar Institute of Anatomy and Biology, priority 2019, published 2022).

Experiments:
[1] = target: T1, recombinant human LOX-1 protein (Homo sapiens, UniProt P78380); assay: IgG avidity test, modified ELISA with 4M urea washes; assay type: binding; settings: for avidity: 4M urea ELISA; for strength of binding to hLOX-1 recombinant protein: 4M urea washes, rank order 6A10=12D9>12E4>4D6
T1 construct: The hLOX1 immunogen was cloned into pET30a Escherichia coli expression vector and produced; His tag; made in house; host or cells: Escherichia coli (pET30a)
Protocol: Anti-hLOX-1 mAbs samples were tested for anti-hLOX-1-specific binding to recombinant antigen using a modified ELISA and avidity determined by 4M urea washes against recombinant human LOX-1 protein.
Anti-LOX-1 mAbs samples were tested for anti-LOX-1-specific binding to recombinant antigen using a modified ELISA and avidity determined by 4M urea washes against recombinant human LOX-1 protein. […] Overall out of 16 clones identified, 6 were stronger binders, and 4 were high binders in rank order of strength of binding 6A 10=12D9>12E4>4D6.
Microtiter plates previously coated with recombinant Lox-1 antigens were washed 3 times with PBS plus 0.05% tween 20 (PBST). Hybridomas 1B6, 2A10, 3D8, 3E6, 4D6, 5C2, 5F5, 6A10, 8E7, 9E12, 10H11, 11A6, 12D9, 11C5, 12A10, 12E4, 14A12, and 12G6 samples were diluted as indicated and added (100 μl/well). The avidity of antibodies against hLOX-1 protein was determined by a particle disruption ELISA using 4M Urea. The binding of hLOX1 protein and incubation with mAbs were performed followed by a 5-minute incubation with urea after washing five times with 0.05% PBST. Control (urea-untreated) wells were treated with PBS during the 5-minute incubation. The anti-human IgG conjugated with horseradish peroxidase (HRP) was added with the dilution of 1/5000 in PBS for 1 hour. Afterwards, the plate is washed 5 times, and 100 μl of 3,3′5,5′-Tetramethylbenzidine (TMB) Substrate (Sigma-Aldrich, USA) is added to each well for 10 minutes before the reaction being stopped with 2M H2SO4 solution. The plate is read at 450 nm by Biotek ELISA plate reader.

[2] = target: T2, recombinant full length hLOX1 protein (Homo sapiens, UniProt P78380); assay: Western blot against native and denatured full-length recombinant hLOX1; assay type: binding; settings: for binding to denatured LOX-1: denatured condition; for binding to native LOX-1: native condition
T2 construct: The hLOX1 immunogen was cloned into pET30a Escherichia coli expression vector and produced; His tag; made in house; host or cells: Escherichia coli (pET30a)
Source text: FIGS. 5A and 5B provide a series of gels showing the binding and specificity of anti-LOX-1 mAbs to target protein analyzed by Western blot analysis. In each figure, the first row of gels was loaded with denatured LOX-1, while the second row of gels was loaded with native LOX-1, as indicated in Example. The clone numbers of the anti-LOX-1 antibodies are listed below the gels.
Immunological reactivity of hLox-1 antibodies was characterized by Western blot analysis against native and denatured full-length recombinant proteins. Protein samples were electrophoretically separated under native or denaturing conditions on SDS-PAGE, performed using Novex gels with reagents as followed: 4-10% mini-gel, 10× Native-PAGE running buffer and 2× Native-PAGE: sample buffer. Denatured protein was heated in a heat block for 10 minutes at 57° C. Two micrograms (2 μg) of recombinant full length hLOX1 protein or non-specific POWV-Env viral protein was loaded to each well along with a protein size marker as a ladder. Gels were run at 150 V for 1 hour in a running buffer. Protein was transferred to a nitrocellulose membrane using the iBlot 2 Gel Transfer Device (Life Technologies). Membranes were blocked in Odyssey blocking buffer (Licor) for 1 hour at room temperature. Indicated hybridomas were diluted 1:250 in 0.5× Odyssey blocking buffer with 0.1% Tween-20 (BioRad) and incubated with the membranes overnight at 4° C. Membranes were washed and then incubated with the appropriate secondary antibody (goat anti-mouse IRDye680RD) for hybridoma samples for 1 hour at room temperature. After washing with PBST 5 times, membranes were imaged on the Odyssey infrared imager.

[3] = system: CD11c+, CD14+, CD19+ and CD3+ cells in PBMCs; assay: flow cytometry of PBMCs from healthy donors; assay type: cell-based, human
Protocol: (§1) FIG. 8A is a flow cytometric histogram showing fluorescent intensity of cells incubated with recombinantly expressed anti-LOX-1 (IgG1) on the plasmid hLOX-1 transfected cells. Anti-hLOX-1/DNA transfected cells were stained with 1 μg/ml of anti-Lox1 (IgG1) (6A10) antibody plus FITC-labelled goat anti-human IgG secondary antibody. […] FIG. 8B show flow cytometry analysis of PBMCs from whole blood. Flow cytometry analysis of anti-hLOX-1 binding to CD11c^+, CD14^+, CD19^+ and CD3^+ cells in PBMCs from healthy donors. Flow cytometric analyses of anti-CD3, CD4, CD14, CD19 and anti-Lox1 monoclonal antibodies were used to detect their lineage specificity.

[4] = target: T3, LOX-1 antigen present on the cell surface of 293T cells (Homo sapiens, UniProt P78380); assay: flow cytometry on hLOX-1 plasmid transfected 293T cells; assay type: cell-based; settings: 1 μg/ml antibody
T3 construct: expressed in transfected cells; host or cells: 293T cells
Protocol: as §1

B1: 6A10: mouse monoclonal anti-human LOX-1 antibody, VH SEQ ID NO: 3, VL SEQ ID NO: 5 (antibody, V domains shown)
VH: MGWSWIFLFLLSGTAGVLSEVQLQQSGPELVKPGASVKISCKASGYSFTGYYMHWVKQSHVKSLEWIGRINPYNGATSYNQNFKDKASLTVDKSSSTAYMELHSLTSEDSAVYYCAPDVAYWGQGTLVTVSA
VL: MRTPAQFLGILLLWFPGIKCDIKMTQSPSSMYASLGERVTITCKASQDINSYLSWFQQKPGKSPKTLIYRANRLVDGVPSRFSGSGSGQDYSLTISSLEYEDMGIYYCLQYDEFPPWTFGGGTKLEIK
modifications: Amino acid sequence of variable region of the 6A10 heavy chain.; SIGNAL (1)..(19) signal seqeunce; (20)..(49) FR1; (50)..(54) CDR1; (55)..(68) FR2; (69)..(85) CDR2; (86)..(117) FR3; (118)..(121) CDR3; (122)..(132) FR4; Amino acid sequence of variable region of the 6A10 light chain.; SIGNAL (1)..(20) signal seqeunce; (21)..(43) FR1; (44)..(54) CDR1; (55)..(69) FR2; (70)..(76) CDR2; (77)..(108) FR3; (109)..(118) CDR3; (119)..(128) FR4
- avidity [1]: strong avidity
- strength of binding to hLOX-1 recombinant protein [1]: high binders
- binding to denatured LOX-1 [2]: not denatured LOX-1 (or binding to denatured LOX-1 at a significantly lower level)
- binding to native LOX-1 [2]: demonstrate binding to native LOX-1

B2: 12D9: mouse monoclonal anti-human LOX-1 antibody, VH SEQ ID NO: 11, VL SEQ ID NO: 13 (antibody, V domains shown)
VH: MAWVWTLLFLMAAAQSAQAQIQLVQSGPELKKPGETVKISCKASGYTFTNYGMNWVKQTPGKGLKWMGWINTYTGEPTYTDDFKGRFAFSLETSASTASLQIINLKNEDTATYFCARGGDFYAMDYWGQGTSVTVSS
VL: MESQTLVFISILLWLYGADGNIVMTQSPKSMSMSVGERVTLSCKASENVGTYVSWYQQKPEQSPKLVIFGASNRNTGVPDRFTGSGFATDFTLTISSVQAEDLGDYHCGQSSNYPYTFGGGTKLEIK
modifications: Amino acid sequence of variable region of the 12D9 heavy chain.; (1)..(19) signal; (20)..(49) FR1; (50)..(54) CDR1; (55)..(68) FR2; (86)..(117) FR3; (118)..(126) CDR3; (127)..(137) FR4; Amino acid sequence of variable region of the 12D9 light chain.; (1)..(20) signal; (21)..(43) FR1; (44)..(54) CDR1; (55)..(69) FR2; (70)..(76) CDR2; (77)..(108) FR3; (109)..(117) CDR3; (118)..(127) FR4
- avidity [1]: strong avidity
- strength of binding to hLOX-1 recombinant protein [1]: high binders
- binding to denatured LOX-1 [2]: not denatured LOX-1 (or binding to denatured LOX-1 at a significantly lower level)
- binding to native LOX-1 [2]: demonstrate binding to native LOX-1

B3: 12E4: mouse monoclonal anti-human LOX-1 antibody, VH SEQ ID NO: 15, VL SEQ ID NO: 17 (antibody, V domains shown)
VH: MGWSWIFLFLLSGTAGVHSEVQLQQSGPELVKPGASMKISCKASGYSFTGYTMNWVKQSHGKNLEWIGLINPYNGGTSYNQKFKGKATLTVDKSSSTAYMELLSLTSEDSAVYYCARGGFYAMDYWGQGTSVTVSS
VL: MSSAQFLGLLLLCFQGTRCDIQMTQTTSSLSASLGDRVTISCSASQGISNYLNWYQQKPDGTVKLLIYYTSSLHSGVPSRFSGSGSGTDYSLTISNLEPEDIATYYCQQYSKLPYTFGGGTKLEIK
modifications: Amino acid sequence of variable region of the 12E4 heavy chain.; (1)..(19) signal; (20)..(49) FR1; (50)..(54) CDR1; (55)..(68) FR2; (69)..(85) CDR2; (86)..(117) FR3; (118)..(125) CDR3; (126)..(136) FR4; Amino acid sequence of variable region of the 12E4 light chain.; (20)..(42) FR1; (43)..(53) CDR1; (54)..(68) FR2; (69)..(75) CDR2; (76)..(107) FR3; (108)..(116) CDR3; (117)..(126) FR4
- strength of binding to hLOX-1 recombinant protein [1]: high binders
- binding to denatured LOX-1 [2]: not denatured LOX-1 (or binding to denatured LOX-1 at a significantly lower level)
- binding to native LOX-1 [2]: demonstrate binding to native LOX-1

B4: anti-Lox1 (IgG1) (6A10): recombinant antibody, clone 6A10 sequence in IgG1 framework, expressed in Expi293F cells (antibody, V domains shown)
VH: EVQLQQSGPELVKPGASVKISCKASGYSFTGYYMHWVKQSHVKSLEWIGRINPYNGATSYNQNFKDKASLTVDKSSSTAYMELHSLTSEDSAVYYCAPDVAYWGQGTLVTVSA
VL: DIKMTQSPSSMYASLGERVTITCKASQDINSYLSWFQQKPGKSPKTLIYRANRLVDGVPSRFSGSGSGQDYSLTISSLEYEDMGIYYCLQYDEFPPWTFGGGTKLEIK
- binding to CD3+ cells in PBMCs [3]: not to CD3^+ cells
- binding to immune subset cells in PBMCs ([3]; CD11c+, CD14+, CD19+ cells): binds to immune subset cells
- binding to non-transfected cells [4]: no binding above background to non-transfected cells
- binding to hLOX-1 transfected cells ([4]; FITC-labelled goat anti-human IgG secondary): Specific binding to cells transfected with LOX-1 antigen

B5: 3D8: mouse monoclonal anti-human LOX-1 antibody, VH SEQ ID NO: 25, VL SEQ ID NO: 27 (antibody, V domains shown)
VH: MEWSWIFLFLLSGTAGVHSEVQLQQSGPELVKPGASVKMSCKASGYTFTSYVMHWVKQKPGQGLEWIGYINPYNDGTKYNEKFKGKATLTSDKSSSTAYMELSSLTSEDSAVYYCARGVYDGYPDYWGQGTTLTVSS
VL: MVSTSQLLGLLLFWTSASRCDIVMTQSPATLSVTPGDRVSLSCRASQSISDYLHWYQQKSHESPRLLIKYASQSISGIPSRFSGSGSGSDFTLSINSVEPEDVGVYYCQNGHSFPYTFGGGTKLEIK
modifications: Amino acid sequence of variable region of the 3D8 heavy chain.; (1)..(19) Signal; (20)..(49) FR1; (50)..(54) C DR1; (55)..(68) FR2; (69)..(85) CDR2; (86)..(117) FR3; (118)..(126) CDR3; (127)..(137) FR4; Amino acid sequence of variable region of the 3D8 light chain.; (1)..(20) signal; (21)..(43) FR1; (44)..(54) CDR1; (55)..(69) FR2; (70)..(76) CDR2; (77)..(108) FR3; (109)..(117) CDR3; (118)..(127) FR4
- binding to denatured LOX-1 [2]: not denatured LOX-1 (or binding to denatured LOX-1 at a significantly lower level)
- binding to native LOX-1 [2]: demonstrate binding to native LOX-1
